Assay results reported in article PMC11302929.
Where “and” joins values, the source holds several entries; their conditions need not be identical. Equal entries are not always repeated.

Biological target: recombinant soluble NDV HN ectodomain with GCN4IL dimerization domain (HN-GCN4IL) (not stated | Newcastle disease virus)
Assay: SEC; Superdex 200 Increase 10/300 GL column, freshly purified NDV HN proteins

Substance: recombinant soluble NDV HN ectodomain with GCN4IL dimerization domain (HN-GCN4IL)
- stoichiometry N: 2 and 4
